Reference: doi:10.1101/2020.03.13.990150

Molecular target: Saccharomyces cerevisiae (Sc) Tim9 (Saccharomyces cerevisiae)
Test: SEC

- stoichiometry N: 2
Substance: Saccharomyces cerevisiae (Sc) Tim9 (natural protein)
